The nature of this series: soluble on expression in E. coli; label from the status in PepcDB or PDB records.
“MNVASRVVVNADRVKGTINRNIYGHFSEHLGRCIYEGLWVGEDSPIPNTNGIRNDVLEALKQMKIPVLRWPGGCFADEYHWKDGVGPREKRKRMVNTHWGGVIENNHFGTHEFMMLCELLGCEPYISGNVGSGTVQEMSEWVEYITFDGESPMANWRRENGREKPWRIKYWGVGNQNWGCGGNMRAEYYADLYRQFQTYLRNYGDNKLHKIACGANTADYHWTEVLMKQAAPFMHGLSLHYYTVPGPWEKKGPATGFTTDEWWVTLKKALFMDRLVTKHSAIMDVYDPDKRIDLIVDEWGTWYDVEPGTNPGFLYQQNSIRDALVAGATLHIFHRHCDRVRMANIAQLVNVLQSVILTEGERMLLTPTYHVFNMFKVHQDAELLDTWESVERTGPEGELPKVSVSASRAADGKIHISLCNLDFETGASVDIELRGLNGGVSATGTTLTSGRIDGHNTFDEPERVKPAPFRDFKLEGGHLNASLPPMSVTVLELTAG”: the “soluble on expression in E. coli” value is given as “soluble”.

Regarding “MGSDKIHHHHHHERHEFIIEVVGNAYLDDVMDWYQPSYGDYLVQAHPVIVLYYPDESYAYYERATFYEQYNDFVAAAGVIVDTADLKNDLGRIWNSYYPIYDVDVWWQADREEWQARVKGLTRDVNITTFFVVTFNGRDNYCEVVDIKDEGEIYLDNNGVYHLGPLSGVDGFAAFVQENPSRLTLESNTKILGAEVRWIK”, the “soluble on expression in E. coli” value is recorded as “not soluble”.

Turning to “SKIKDAKKPSFPWFGMDIGGTLVKLSYFEPIDITAEEEQEEVESLKSIRKYLTSNVAYGSTGIRDVHLELKDLTLFGRRGNLHFIRFPTQDLPTFIQMGRDKNFSTLQTVLCATGGGAYKFEKDFRTIGNLHLHKLDELDCLVKGLLYIDSVSFNGQAECYYFANASEPERCQKMPFNLDDPYPLLVVNIGSGVSILAVHSKDNYKRVTGTSLGGGTFLGLCSLLTGCESFEEALEMASKGDSTQADKLVRDIYGGDYERFGLPGWAVASSFGNMIYKEKRESVSKEDLARATLVTITNNIGSVARMCAVNEKINRVVFVGNFLRVNTLSMKLLAYALDYWSKGQLKALFLEHEGYFGAVGALLGLPNFS”, the “soluble on expression in E. coli” value is given as “soluble”.

Turning to “MGSDKIHHHHHHMERLDVFDCSNVLIASYFTDDRGCAHENREHTLIYLCSGELEIEERGKKTVLHPGDCAFMRRDNRMWLQKKVEDGKPYRSVVLKFSRPFLREFYQTLNRQQIPTDSEREKVSLRVLPSNRPDIRSLFESVIPYFDAGEKPSEDVLKLKMVEGIYVLLNTDRNLYASLFDFVEPWKIDILDYLNENYMCDLSLEEIASYTGRSLATFKRDFAKVSNLTPQKWIVKRRLEAAHGLIKSGKKKVTEACFDVGFKNLSHFSKIYKEAYGVAPSW”, the “soluble on expression in E. coli” value is given as “not soluble”.

Turning to “MTNDLIQLIDSLMVNIPAGEVVLRDDRIKKEWLVQIQPFLLAKYAVTMELYDAITNSTLNNFDKNHKPVVNISWNDAIAFCNVLSKKAGLKEYYSISDGGQIVKCNLDSNGYRLPSEAEWQYACKASTTGYTYGKLHDIAWYNENSNGEIHDVGQKEPNAWGLYDMLGNVWEWCYDLYDETVYGSYRIFRGGSWAETARGCGATCRRRSHPTFHIDDLGFRLARSILEHHHHHH”, the “soluble on expression in E. coli” value is reported as “soluble”.

For “MGSDKIHHHHHHMDAPSRSHLASPILVANYRSLPSFMYRDSLPEAAVSPQLLALNTRLLETLEQDLAWFNSSDALEQLSGKTYYGSNLPFALAYSGHQFGGWSPVLGDGRAHVLGQLKTAADELIDVQLKGSGATPFSRGGDGRATLGAVIREYLLSEAMAGLNISTTGSLAVIATGEDVWRNGAYPGAILVRTAKSHLRVGSFQYAAVHQGPEAVKTLADFALAQYYPELSHDENPYQALLAQVIKGQAELVAQWMLVGFIHGVMNTDNSSITGETIDYGPCAFMDEFNPNKVFSSIDSQGRYAWGNQGAIAQWNMARLGETLLPLLDSDEAKALEIAQAQLGDFNRLFAEHFYQGMARKLSLDASDPELIPFVDSTLQLMTNTRVDFCQFFNALTEYHSTHREQDAGLVALFSTEAFPSLSSTPAQLLQDWLSQWQAKACDSQAALAAMIKANPKFIARNHKVEAAISAAEQNNDYSLFLDMARVLANPYVLAEQDKHYQDAPTPDQRVKQTFCGT”, the “soluble on expression in E. coli” value is reported as “not soluble”.

With “MINMTRKLYYEDAYLKEAKGRVLEIRDNAILLDQTIFYPTGGGQPHDRGTINGVEVLDVYKDEEGNVWHVVKEPEKFKVGDEVELKIDWDYRYKLMRIHTGLHLLEHVLNEVLGEGNWQLVGSGMSVEKGRYDIAYPENLNKYKEQIISLFNKYVDEGGEVKIWWEGDRRYTQIRDFEVIPCGGTHVKDIKEIGHIKKLKRSSIGRGKQRLEMWLE”, the “soluble on expression in E. coli” value is listed as “soluble”.

For the origin of these results see the DeepSol protein solubility set.
